Consider 1 molecule from publication PMC11164701.

This experiment addresses CpxA^QTY (water-soluble QTY-code variant of the sensor histidine kinase CpxA), his-tagged (E. coli) (UniProt P0AE82).

B1: periplasmic protein CpxP (natural protein)
chain: AEVGSGDNWHPGEELTQRSTQSHMFDGISLTEHQRQQMRDLMQQARHEQPPVNVSELETMHRLVTAENFDENAVRAQAEKMANEQIARQVEMAKVRNQMYRLLTPEQQAVLNEKHQQRMEQLRDVTQWQKSSSLKLLSSSNSRSQ
B1 yielded an inhibition of the autokinase activity of CpxA^QTY (1 μM, 1 mM ATP, RT, 2 min, anti-pHis western blot) by different concentrations of CpxP; CpxP excess needed for inhibition by approximately half (fold (CpxP over kinase)) of 10.
